Our source for the average NCS-1 bound (%) and Kd values is paper PMC4180279.

Test [1] addresses GST-P/Q, residues 1898-2035 of the rat P/Q channel α1 subunit (Cav2.1) C-terminal tail (rat). The experiment in a line: pull-down; 5 μM GST fusion protein immobilised on glutathione-agarose; 5 μM GST-free NCS-1 or CaM added; 150 mM KCl, 20 mM HEPES pH 7.4, 10% glycerol, 5 mM NTA, 5 mM EGTA, 1 mM DTT, 0.1% NP-40, with 1 μM free Ca2+; 1 h, 4 °C; Western blot, densitometry normalised to NCS-1 on GST-PQ with Ca2+ = 100%. In general terms: Immunoblotting shows a protein as a band on a membrane.

Test [2] concerns the target Cav2.1 P/Q-type calcium channel IQ domain (Homo sapiens) (UniProt O00555). The experiment in a line: ITC. The note with it: cited from earlier work.

Chain of Cav2.1 P/Q-type calcium channel IQ domain (Homo sapiens) (O00555 1963-1983): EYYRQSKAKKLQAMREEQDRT
Chain of Neuronal calcium sensor-1 (NCS-1), GST-free recombinant protein from the GST-NCS-1 plasmid (P62166 whole entry): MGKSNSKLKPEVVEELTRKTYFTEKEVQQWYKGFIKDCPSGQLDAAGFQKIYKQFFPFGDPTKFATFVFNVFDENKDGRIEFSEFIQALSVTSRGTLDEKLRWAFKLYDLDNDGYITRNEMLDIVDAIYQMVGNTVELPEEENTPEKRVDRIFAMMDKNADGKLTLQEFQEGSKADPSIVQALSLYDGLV

Turning to “Neuronal calcium sensor-1 (NCS-1), GST-free recombinant protein from the GST-NCS-1 plasmid (from UniProt P62166 1-190) (natural protein)”, in test [1], the average NCS-1 bound (%) was 100%.

For “calmodulin C lobe C lobe (from UniProt P0DP23)”, the Kd (in general, the free concentration of one partner at which half of the binding sites on the other are occupied at equilibrium, for simple one-to-one binding) in test [2] is 4.32 nM.
